{"source": "patent US20200140542A1", "about": "(OSAKA UNIVERSITY, published 2020)", "key": {"mouse CL-2 [1]": {"target": "T1, mouse CL-2 (mouse, UniProt O88552 1-230)", "T1 construct": "whole, on cells; also called mCL-2; mCL-2/L cells", "T1 sequence (looked up)": "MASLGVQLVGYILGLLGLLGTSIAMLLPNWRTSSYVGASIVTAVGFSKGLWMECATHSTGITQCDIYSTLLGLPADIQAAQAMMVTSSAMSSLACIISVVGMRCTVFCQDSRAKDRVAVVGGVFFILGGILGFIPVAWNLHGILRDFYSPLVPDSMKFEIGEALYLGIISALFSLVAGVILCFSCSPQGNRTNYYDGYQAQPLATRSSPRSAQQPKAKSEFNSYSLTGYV", "test": "flow cytometry, culture supernatant on transfected cells", "procedure": "(§1) After the hybridoma culture supernatants prepared in Example 1 (1A2, 2G8, and 3B2) were individually added and stirred, the resulting mixtures were allowed to stand on ice for 1 hour. After washing with 0.2% BSA-PBS once, goat anti-rat IgG (H +L)-FITC antibody (KPL) diluted with 1% BSA-PBS was added and stirred, and the resulting mixtures were allowed to stand on ice for 30 minutes. After washing with 0.2% BSA-PBS once, PI (Mitenyi Biotec) diluted with 1% BSA-PBS to a final concentration of 5 μg/mL was added, and FCM analysis was performed.\nFurther, all the three hybridoma culture supernatants 1A2, 2G8, and 3B2 prepared in Example 1 were also confirmed to have affinity to mCL-2/L cells."}, "human CL-7 [2]": {"target": "T2, human CL-7 (human, UniProt O95471 1-211)", "T2 construct": "whole, on cells; also called hCL-7; hCL-7/HT1080 cells", "T2 sequence (looked up)": "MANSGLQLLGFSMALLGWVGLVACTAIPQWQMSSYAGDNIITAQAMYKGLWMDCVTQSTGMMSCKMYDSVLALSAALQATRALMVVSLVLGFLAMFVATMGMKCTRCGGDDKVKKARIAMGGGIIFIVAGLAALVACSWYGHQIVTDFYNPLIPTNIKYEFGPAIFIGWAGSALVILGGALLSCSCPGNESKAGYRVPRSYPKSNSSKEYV", "test": "flow cytometry, hybridoma culture supernatant on transfected cells", "procedure": "as §1"}, "human CL-9 [3]": {"target": "T3, human CL-9 (human, UniProt O95484 1-217)", "T3 construct": "whole, on cells; also called hCL-9; hCL-9/HT1080 cells", "T3 sequence (looked up)": "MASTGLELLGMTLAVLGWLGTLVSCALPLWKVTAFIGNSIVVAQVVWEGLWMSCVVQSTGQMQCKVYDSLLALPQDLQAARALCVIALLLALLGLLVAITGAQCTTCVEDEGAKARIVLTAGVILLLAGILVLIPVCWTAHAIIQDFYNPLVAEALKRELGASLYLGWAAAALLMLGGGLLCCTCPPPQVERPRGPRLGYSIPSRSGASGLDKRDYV", "test": "flow cytometry, hybridoma culture supernatant on transfected cells", "procedure": "as §1"}, "human CL-4 [4]": {"target": "T4, human CL-4 (human, UniProt O14493 1-209)", "T4 construct": "whole, on cells; also called hCL-4; hCL-4/HT1080 cells", "T4 sequence (looked up)": "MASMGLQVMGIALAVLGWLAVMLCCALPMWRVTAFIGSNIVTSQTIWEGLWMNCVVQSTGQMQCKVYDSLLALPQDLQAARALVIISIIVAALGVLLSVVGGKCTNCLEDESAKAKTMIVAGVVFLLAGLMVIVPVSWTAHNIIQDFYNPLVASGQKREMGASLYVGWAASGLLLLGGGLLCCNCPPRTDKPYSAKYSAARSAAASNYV", "test": "flow cytometry, hybridoma culture supernatant on transfected cells", "procedure": "as §1"}, "human CL-3 [5]": {"target": "T5, human CL-3 (human, UniProt O15551 1-220)", "T5 construct": "whole, on cells; also called hCL-3; hCL-3/HT1080 cells", "T5 sequence (looked up)": "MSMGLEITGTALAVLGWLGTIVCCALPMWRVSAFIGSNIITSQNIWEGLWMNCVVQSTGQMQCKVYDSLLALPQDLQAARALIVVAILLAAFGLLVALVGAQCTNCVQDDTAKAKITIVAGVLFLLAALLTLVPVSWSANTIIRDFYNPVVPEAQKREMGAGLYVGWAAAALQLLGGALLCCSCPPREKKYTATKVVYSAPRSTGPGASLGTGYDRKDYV", "test": "flow cytometry, hybridoma culture supernatant on transfected cells", "procedure": "as §1"}, "human CL-1 [6]": {"target": "T6, human CL-1 (human, UniProt O95832 1-211)", "T6 construct": "whole, on cells; also called hCL-1; hCL-1/HT1080 cells", "T6 sequence (looked up)": "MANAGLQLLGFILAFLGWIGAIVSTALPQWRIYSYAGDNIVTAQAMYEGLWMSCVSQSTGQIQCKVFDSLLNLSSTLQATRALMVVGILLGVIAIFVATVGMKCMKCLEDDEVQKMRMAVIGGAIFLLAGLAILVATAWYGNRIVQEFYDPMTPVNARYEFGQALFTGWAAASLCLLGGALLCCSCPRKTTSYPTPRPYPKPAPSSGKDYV", "test": "flow cytometry, hybridoma culture supernatant on transfected cells", "procedure": "as §1"}, "human CL-6 [7]": {"target": "T7, human CL-6 (human, UniProt P56747 1-220)", "T7 construct": "whole, on cells; also called hCL-6; hCL-6/HT1080 cells", "T7 sequence (looked up)": "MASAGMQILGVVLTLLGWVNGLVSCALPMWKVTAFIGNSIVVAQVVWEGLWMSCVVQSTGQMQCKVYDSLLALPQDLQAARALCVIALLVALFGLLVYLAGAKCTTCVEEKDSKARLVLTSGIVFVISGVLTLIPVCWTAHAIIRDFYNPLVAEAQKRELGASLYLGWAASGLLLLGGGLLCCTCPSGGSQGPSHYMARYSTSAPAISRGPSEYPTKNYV", "test": "flow cytometry, hybridoma culture supernatant on transfected cells", "procedure": "as §1"}, "human CL-7 [8]": {"target": "T2, human CL-7", "test": "flow cytometry on transfected cells", "source_text": "(§2) hCL-1/HT1080 cells, hCL-2/HT1080 cells, hCL-3/HT1080 cells, hCL-4/HT1080 cells, human CL-5 expressing HT1080 cells (hCL-5/HT1080 cells), hCL-6/HT1080 cells, hCL-7/HT1080 cells, and hCL-9/HT1080 cells, mouse CLDN1 expressing L cells (mCL-1/L cells), mCL-2/L cells, and mouse CL4 expressing L cells (mCL-4/L cells) were individually recovered by trypsin treatment. […] Subsequently, after washing with 0.2% BSA-PBS once, goat anti-human IgG (H+L)-FITC antibody (Jackson ImmunoResearch) diluted with 1% BSA-PBS was added and stirred, and the resulting mixtures were allowed to stand on ice for 30 minutes. After washing with 0.2% BSA-PBS once, PI diluted with 1% BSA-PBS to a final concentration of 5 μg/mL was added, and FCM analysis was performed."}, "human CL-9 [9]": {"target": "T3, human CL-9", "test": "flow cytometry on transfected cells", "source_text": "as §2"}, "human CL-4 [10]": {"target": "T4, human CL-4", "test": "flow cytometry on transfected cells", "source_text": "as §2"}, "mouse CL4": {"target": "T8, mouse CL4 (mouse, UniProt O35054 1-210)", "T8 construct": "whole, on cells; also called mCL-4; mCL-4/L cells", "T8 sequence (looked up)": "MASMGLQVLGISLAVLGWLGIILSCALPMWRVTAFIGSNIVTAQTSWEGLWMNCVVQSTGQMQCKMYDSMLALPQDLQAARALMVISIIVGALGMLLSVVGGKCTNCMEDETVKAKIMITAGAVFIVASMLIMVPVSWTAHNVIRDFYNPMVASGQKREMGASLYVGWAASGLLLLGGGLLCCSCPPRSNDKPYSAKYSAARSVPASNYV", "test": "flow cytometry on transfected cells", "source_text": "as §2"}, "human CL-5": {"target": "T9, human CL-5 (human, UniProt O00501 1-218)", "T9 construct": "whole, on cells; also called hCL-5; hCL-5/HT1080 cells", "T9 sequence (looked up)": "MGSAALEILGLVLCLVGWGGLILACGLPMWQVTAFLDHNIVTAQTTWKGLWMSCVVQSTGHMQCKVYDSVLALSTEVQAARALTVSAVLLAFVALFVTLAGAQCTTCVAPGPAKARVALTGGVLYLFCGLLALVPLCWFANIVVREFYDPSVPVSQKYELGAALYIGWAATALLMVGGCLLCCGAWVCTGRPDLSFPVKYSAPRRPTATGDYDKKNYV", "test": "flow cytometry on transfected cells", "source_text": "as §2"}, "mouse CLDN1": {"target": "T10, mouse CLDN1 (mouse, UniProt O88551 1-211)", "T10 construct": "whole, on cells; also called mCL-1; mCL-1/L cells", "T10 sequence (looked up)": "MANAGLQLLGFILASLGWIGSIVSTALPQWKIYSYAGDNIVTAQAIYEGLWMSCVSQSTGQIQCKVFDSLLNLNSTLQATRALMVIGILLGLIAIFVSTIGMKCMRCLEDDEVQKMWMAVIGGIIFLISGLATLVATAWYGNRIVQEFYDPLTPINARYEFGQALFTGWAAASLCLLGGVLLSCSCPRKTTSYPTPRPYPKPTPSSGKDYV", "test": "flow cytometry on transfected cells", "source_text": "as §2"}, "human CL-3 [11]": {"target": "T5, human CL-3", "test": "flow cytometry on transfected cells", "source_text": "as §2"}, "human CL-1 [12]": {"target": "T6, human CL-1", "test": "flow cytometry on transfected cells", "source_text": "as §2"}, "human CL-6 [13]": {"target": "T7, human CL-6", "test": "flow cytometry on transfected cells", "source_text": "as §2"}, "mouse CL-2 [14]": {"target": "T1, mouse CL-2", "test": "flow cytometry on transfected cells, antibody at 5 µg/mL", "source_text": "as §2"}}, "data": [{"binder": "anti-CL-2 antibody 2G8 (antibody, IgG2b, V domains shown, also called clone 2G8; hybridoma culture supernatant 2G8) VH: QVNLLQSGAALVKPGASVRLSCRVSGYSFTVSFLHWVKQSHGKSLEWIGYINPYSGSPNYNEKFKSKTTLTVDKSTSTAYMELSGLTSEDSASYYCTNWDYWGQGVMVTVSS VL: DVVMTQTPVSLSLAIGQPASISCKSSQSLLGSSGKTFLNWILQRPGQSPKRLIYQVSTLYSEVPDRFSGSGSETEFTLKITRVEAEDLGVYYCWQGIHFPHTFGAGTKLELKR", "values": [{"measurement": "binding result", "setting": "mouse CL-2 [1]", "result": "binds"}, {"measurement": "binding result", "setting": "human CL-7 [2]", "result": "no binding"}, {"measurement": "binding result", "setting": "human CL-9 [3]", "result": "no binding"}, {"measurement": "binding result", "setting": "human CL-4 [4]", "result": "no binding"}, {"measurement": "binding result", "setting": "human CL-3 [5]", "result": "no binding"}, {"measurement": "binding result", "setting": "human CL-1 [6]", "result": "no binding"}, {"measurement": "binding result", "setting": "human CL-6 [7]", "result": "no binding"}]}, {"binder": "anti-CL-2 human-rat chimeric antibody 2G8 produced in Example 4 (antibody, V domains shown, Variable regions of rat 2G8 cloned into vectors with human constant regions (VH: pFUSE-CHIg-hG1, human IgG1); also called anti-CL-2 chimeric antibody 2G8; anti-CL-2 chimeric antibody 2G8a) VH: QVNLLQSGAALVKPGASVRLSCRVSGYSFTVSFLHWVKQSHGKSLEWIGYINPYSGSPNYNEKFKSKTTLTVDKSTSTAYMELSGLTSEDSASYYCTNWDYWGQGVMVTVSS VL: DVVMTQTPVSLSLAIGQPASISCKSSQSLLGSSGKTFLNWILQRPGQSPKRLIYQVSTLYSEVPDRFSGSGSETEFTLKITRVEAEDLGVYYCWQGIHFPHTFGAGTKLELKR", "values": [{"measurement": "binding result", "setting": "human CL-7 [8]", "result": "no binding (tested: 5 µg/mL)"}, {"measurement": "binding result", "setting": "human CL-9 [9]", "result": "no binding (tested: 5 µg/mL)"}, {"measurement": "binding result", "setting": "human CL-4 [10]", "result": "no binding (tested: 5 µg/mL)"}, {"measurement": "binding result", "setting": "mouse CL4", "result": "no binding (tested: 5 µg/mL)"}, {"measurement": "binding result", "setting": "human CL-5", "result": "no binding (tested: 5 µg/mL)"}, {"measurement": "binding result", "setting": "mouse CLDN1", "result": "no binding (tested: 5 µg/mL)"}, {"measurement": "binding result", "setting": "human CL-3 [11]", "result": "no binding (tested: 5 µg/mL)"}, {"measurement": "binding result", "setting": "human CL-1 [12]", "result": "no binding (tested: 5 µg/mL)"}, {"measurement": "binding result", "setting": "human CL-6 [13]", "result": "no binding (tested: 5 µg/mL)"}, {"measurement": "binding result", "setting": "mouse CL-2 [14]", "result": "binds"}]}]}
